Test [1] addresses Staphylococcus aureus Cas9, wild-type (Staphylococcus aureus) (UniProt J7RUA5). The experiment in a line: cell-based or functional assay.
In test [2] the target is Streptococcus pyogenes Cas9, wild-type (Streptococcus pyogenes) (UniProt Q99ZW2). The experiment in a line: cell-based or functional assay.
Chain of UniProt Q99ZW2 (Q99ZW2 whole entry): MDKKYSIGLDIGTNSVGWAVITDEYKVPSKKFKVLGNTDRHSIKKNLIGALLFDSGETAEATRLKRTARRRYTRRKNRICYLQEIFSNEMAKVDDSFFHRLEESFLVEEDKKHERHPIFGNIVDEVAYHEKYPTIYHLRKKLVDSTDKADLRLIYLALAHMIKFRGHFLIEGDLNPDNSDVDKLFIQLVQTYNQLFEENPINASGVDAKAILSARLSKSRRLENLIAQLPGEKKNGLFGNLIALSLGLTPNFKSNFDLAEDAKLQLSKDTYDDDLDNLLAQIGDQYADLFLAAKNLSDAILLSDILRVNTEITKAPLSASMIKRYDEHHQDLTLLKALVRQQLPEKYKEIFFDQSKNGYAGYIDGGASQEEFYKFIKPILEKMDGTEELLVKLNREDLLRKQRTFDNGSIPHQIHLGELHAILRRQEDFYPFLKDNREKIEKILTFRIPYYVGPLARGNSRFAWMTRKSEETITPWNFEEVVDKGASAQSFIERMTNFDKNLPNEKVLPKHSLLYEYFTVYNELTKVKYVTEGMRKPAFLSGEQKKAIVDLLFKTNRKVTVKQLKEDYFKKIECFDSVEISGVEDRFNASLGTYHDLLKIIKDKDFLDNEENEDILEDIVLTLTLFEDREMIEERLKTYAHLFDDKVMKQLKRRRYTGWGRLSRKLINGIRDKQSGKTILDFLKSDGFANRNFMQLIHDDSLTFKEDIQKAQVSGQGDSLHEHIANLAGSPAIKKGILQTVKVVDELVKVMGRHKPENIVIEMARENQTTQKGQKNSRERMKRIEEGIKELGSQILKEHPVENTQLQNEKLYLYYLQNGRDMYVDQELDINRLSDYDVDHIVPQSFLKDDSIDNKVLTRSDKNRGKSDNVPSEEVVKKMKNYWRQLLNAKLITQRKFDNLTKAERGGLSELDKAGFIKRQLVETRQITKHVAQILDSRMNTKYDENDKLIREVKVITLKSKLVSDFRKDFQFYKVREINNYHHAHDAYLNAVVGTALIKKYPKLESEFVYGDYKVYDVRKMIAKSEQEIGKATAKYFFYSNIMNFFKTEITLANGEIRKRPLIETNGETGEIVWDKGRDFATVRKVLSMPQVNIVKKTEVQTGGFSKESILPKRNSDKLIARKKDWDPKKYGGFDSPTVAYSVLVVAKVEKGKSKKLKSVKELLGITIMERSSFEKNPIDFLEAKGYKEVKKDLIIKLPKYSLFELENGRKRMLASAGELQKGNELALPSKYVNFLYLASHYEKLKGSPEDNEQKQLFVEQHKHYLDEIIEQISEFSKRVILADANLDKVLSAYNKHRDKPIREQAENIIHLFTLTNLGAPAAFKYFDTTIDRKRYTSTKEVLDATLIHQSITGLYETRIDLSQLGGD

Chain of UniProt J7RUA5 (J7RUA5 2-1053, tags left off): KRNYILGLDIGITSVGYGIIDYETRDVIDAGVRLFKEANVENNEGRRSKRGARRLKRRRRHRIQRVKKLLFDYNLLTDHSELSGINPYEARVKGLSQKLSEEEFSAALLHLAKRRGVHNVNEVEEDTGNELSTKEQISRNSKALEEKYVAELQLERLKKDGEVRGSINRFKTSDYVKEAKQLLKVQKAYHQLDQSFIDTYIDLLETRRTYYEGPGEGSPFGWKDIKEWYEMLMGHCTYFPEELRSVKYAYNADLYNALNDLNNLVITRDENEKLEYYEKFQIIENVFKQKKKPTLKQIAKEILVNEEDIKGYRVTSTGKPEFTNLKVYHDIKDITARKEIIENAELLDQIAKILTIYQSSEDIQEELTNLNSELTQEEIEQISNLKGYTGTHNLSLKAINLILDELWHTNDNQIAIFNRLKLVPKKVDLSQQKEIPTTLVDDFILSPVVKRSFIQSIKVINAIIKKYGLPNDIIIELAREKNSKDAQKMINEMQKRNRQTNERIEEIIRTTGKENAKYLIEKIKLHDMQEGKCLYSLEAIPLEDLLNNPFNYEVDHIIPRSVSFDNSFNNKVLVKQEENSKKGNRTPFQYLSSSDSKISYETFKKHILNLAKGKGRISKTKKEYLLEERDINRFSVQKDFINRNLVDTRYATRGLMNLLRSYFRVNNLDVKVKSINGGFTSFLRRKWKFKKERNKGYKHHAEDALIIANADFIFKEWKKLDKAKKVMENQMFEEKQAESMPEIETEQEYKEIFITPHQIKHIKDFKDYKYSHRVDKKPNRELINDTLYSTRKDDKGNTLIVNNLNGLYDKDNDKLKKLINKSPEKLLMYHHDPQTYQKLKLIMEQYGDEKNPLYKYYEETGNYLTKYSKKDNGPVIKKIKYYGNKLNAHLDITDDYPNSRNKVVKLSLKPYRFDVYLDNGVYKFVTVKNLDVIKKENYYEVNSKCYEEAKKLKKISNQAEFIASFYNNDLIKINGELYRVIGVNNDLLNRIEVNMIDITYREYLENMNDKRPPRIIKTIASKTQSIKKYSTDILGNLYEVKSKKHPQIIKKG

With AcrIIA4 anti-CRISPR protein, the inhibition of Cas9 cleavage activity in the quenched FRET fluorescence assay is over 10 µM in test [1] and under 0.03 µM in test [2].
For AcrIIC1 anti-CRISPR protein, the inhibition of Cas9 cleavage activity in the quenched FRET fluorescence assay in test [1] and in test [2] was over 10 µM in each case.

Source of the values: patent US11807877.
